Numbered stars: 1 amine (or outer) side, 2 acyl side, 3 side chain; on linkers, the order of the positions; unused ones are H or OH. Bridge positions count the residues as written; N and C are the ends. Side chains are listed from the residue outwards. Ends that are not written are not given here. * marks the point of attachment. C20 diacid = O=C(O)CCCCCCCCCCCCCCCCCCC(=O)*; γGlu = O=C(O)[C@H](CCC(=O)[*:2])N[*:1]; AEEA = NCCOCCOCC(=O)O
Experiments:
[1] = molecular target: T1, human amylin 3(a) receptor (human calcitonin receptor co-expressed with RAMP-3) (human, UniProt P30988 25-474; O60896 24-148, limits assumed); experiment: cell-based or functional assay
T1 sequence (looked up) 1: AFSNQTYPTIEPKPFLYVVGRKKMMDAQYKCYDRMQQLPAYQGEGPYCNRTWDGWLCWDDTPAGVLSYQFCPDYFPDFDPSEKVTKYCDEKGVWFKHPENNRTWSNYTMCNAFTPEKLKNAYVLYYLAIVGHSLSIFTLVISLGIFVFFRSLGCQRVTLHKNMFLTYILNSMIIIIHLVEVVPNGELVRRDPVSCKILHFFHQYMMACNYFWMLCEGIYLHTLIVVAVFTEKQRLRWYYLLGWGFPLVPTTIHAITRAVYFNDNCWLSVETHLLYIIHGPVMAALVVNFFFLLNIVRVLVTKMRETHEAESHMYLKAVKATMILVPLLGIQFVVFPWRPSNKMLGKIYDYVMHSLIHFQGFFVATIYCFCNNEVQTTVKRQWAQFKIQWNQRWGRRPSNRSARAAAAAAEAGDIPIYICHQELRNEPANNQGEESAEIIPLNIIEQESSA
T1 sequence (looked up) 2: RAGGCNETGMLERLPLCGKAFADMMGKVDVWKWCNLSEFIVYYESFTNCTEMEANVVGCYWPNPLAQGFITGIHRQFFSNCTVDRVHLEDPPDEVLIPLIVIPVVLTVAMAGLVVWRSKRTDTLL

[2] = molecular target: T2, human calcitonin receptor (human, UniProt P30988 25-474); experiment: cell-based or functional assay
T2 sequence (looked up): T1 sequence (looked up) 1

B1: N^α1-[(4S)-4-carboxy-4-[[(4S)-4-carboxy-4-(19-carboxynonadecanoylamino)butanoyl]amino]butanoyl]-[Glu14,Arg17,Pro21,Pro27]-h-amylin (peptide)
peptide: {C20 diacid-γGlu-γGlu}-KCNTATCATQRLAEFLRHSSPNFGAIPSSTNVGSNTY-NH2
modifications: disulfide 2-7
SMILES: CC[C@H](C)[C@H](NC(=O)[C@H](C)NC(=O)CNC(=O)[C@H](Cc1ccccc1)NC(=O)[C@H](CC(N)=O)NC(=O)[C@@H]1CCCN1C(=O)[C@H](CO)NC(=O)[C@H](CO)NC(=O)[C@H](Cc1c[nH]cn1)NC(=O)[C@H](CCCNC(=N)N)NC(=O)[C@H](CC(C)C)NC(=O)[C@H](Cc1ccccc1)NC(=O)[C@H](CCC(=O)O)NC(=O)[C@H](C)NC(=O)[C@H](CC(C)C)NC(=O)[C@H](CCCNC(=N)N)NC(=O)[C@H](CCC(N)=O)NC(=O)[C@@H](NC(=O)[C@H](C)NC(=O)[C@@H]1CSSC[C@H](NC(=O)[C@H](CCCCN)NC(=O)CC[C@H](NC(=O)CC[C@H](NC(=O)CCCCCCCCCCCCCCCCCCC(=O)O)C(=O)O)C(=O)O)C(=O)N[C@@H](CC(N)=O)C(=O)N[C@@H]([C@@H](C)O)C(=O)N[C@@H](C)C(=O)N[C@@H]([C@@H](C)O)C(=O)N1)[C@@H](C)O)C(=O)N1CCC[C@H]1C(=O)N[C@@H](CO)C(=O)N[C@@H](CO)C(=O)N[C@H](C(=O)N[C@@H](CC(N)=O)C(=O)N[C@H](C(=O)NCC(=O)N[C@@H](CO)C(=O)N[C@@H](CC(N)=O)C(=O)N[C@H](C(=O)N[C@@H](Cc1ccc(O)cc1)C(N)=O)[C@@H](C)O)C(C)C)[C@@H](C)O
notes: h-amylin derivative; disulfide bridge and C-terminal amide as told for human amylin; also called compound 15
Ratio hCT/hAmylin funct. [1]: 8.9 | hCTR funct. EC50 [2]: 3430 pM

B2: N^ε1-[2-[2-[2-[[(4S)-4-carboxy-4-(19-carboxynonadecanoylamino)butanoyl]amino]ethoxy]ethoxy]acetyl]-[Arg17,Pro21,Pro27,Pro31,His35]-h-amylin (peptide)
peptide: K([AEEA-γGlu-C20 diacid])CNTATCATQRLANFLRHSSPNFGAIPSSTPVGSHTY-NH2
modifications: disulfide 2-7; N-terminus assumed
SMILES: CC[C@H](C)[C@H](NC(=O)[C@H](C)NC(=O)CNC(=O)[C@H](Cc1ccccc1)NC(=O)[C@H](CC(N)=O)NC(=O)[C@@H]1CCCN1C(=O)[C@H](CO)NC(=O)[C@H](CO)NC(=O)[C@H](Cc1c[nH]cn1)NC(=O)[C@H](CCCNC(=N)N)NC(=O)[C@H](CC(C)C)NC(=O)[C@H](Cc1ccccc1)NC(=O)[C@H](CC(N)=O)NC(=O)[C@H](C)NC(=O)[C@H](CC(C)C)NC(=O)[C@H](CCCNC(=N)N)NC(=O)[C@H](CCC(N)=O)NC(=O)[C@@H](NC(=O)[C@H](C)NC(=O)[C@@H]1CSSC[C@H](NC(=O)[C@@H](N)CCCCNC(=O)COCCOCCNC(=O)CC[C@H](NC(=O)CCCCCCCCCCCCCCCCCCC(=O)O)C(=O)O)C(=O)N[C@@H](CC(N)=O)C(=O)N[C@@H]([C@@H](C)O)C(=O)N[C@@H](C)C(=O)N[C@@H]([C@@H](C)O)C(=O)N1)[C@@H](C)O)C(=O)N1CCC[C@H]1C(=O)N[C@@H](CO)C(=O)N[C@@H](CO)C(=O)N[C@H](C(=O)N1CCC[C@H]1C(=O)N[C@H](C(=O)NCC(=O)N[C@@H](CO)C(=O)N[C@@H](Cc1c[nH]cn1)C(=O)N[C@H](C(=O)N[C@@H](Cc1ccc(O)cc1)C(N)=O)[C@@H](C)O)C(C)C)[C@@H](C)O
notes: h-amylin derivative; disulfide bridge and C-terminal amide as told for human amylin; also called compound 57
hAmylin-R funct. EC50 [1]: 89 pM | hCTR funct. EC50 [2]: 3120 pM

B3: N^ε1-[2-[2-[2-[[(4S)-4-carboxy-4-(19-carboxynonadecanoylamino)butanoyl]amino]ethoxy]ethoxy]acetyl]-[Arg17,Pro21,Pro27,Pro29,Pro31]-h-amylin (peptide)
peptide: K([AEEA-γGlu-C20 diacid])CNTATCATQRLANFLRHSSPNFGAIPSPTPVGSNTY-NH2
modifications: disulfide 2-7; N-terminus assumed
SMILES: CC[C@H](C)[C@H](NC(=O)[C@H](C)NC(=O)CNC(=O)[C@H](Cc1ccccc1)NC(=O)[C@H](CC(N)=O)NC(=O)[C@@H]1CCCN1C(=O)[C@H](CO)NC(=O)[C@H](CO)NC(=O)[C@H](Cc1c[nH]cn1)NC(=O)[C@H](CCCNC(=N)N)NC(=O)[C@H](CC(C)C)NC(=O)[C@H](Cc1ccccc1)NC(=O)[C@H](CC(N)=O)NC(=O)[C@H](C)NC(=O)[C@H](CC(C)C)NC(=O)[C@H](CCCNC(=N)N)NC(=O)[C@H](CCC(N)=O)NC(=O)[C@@H](NC(=O)[C@H](C)NC(=O)[C@@H]1CSSC[C@H](NC(=O)[C@@H](N)CCCCNC(=O)COCCOCCNC(=O)CC[C@H](NC(=O)CCCCCCCCCCCCCCCCCCC(=O)O)C(=O)O)C(=O)N[C@@H](CC(N)=O)C(=O)N[C@@H]([C@@H](C)O)C(=O)N[C@@H](C)C(=O)N[C@@H]([C@@H](C)O)C(=O)N1)[C@@H](C)O)C(=O)N1CCC[C@H]1C(=O)N[C@@H](CO)C(=O)N1CCC[C@H]1C(=O)N[C@H](C(=O)N1CCC[C@H]1C(=O)N[C@H](C(=O)NCC(=O)N[C@@H](CO)C(=O)N[C@@H](CC(N)=O)C(=O)N[C@H](C(=O)N[C@@H](Cc1ccc(O)cc1)C(N)=O)[C@@H](C)O)C(C)C)[C@@H](C)O
notes: h-amylin derivative; disulfide bridge and C-terminal amide as told for human amylin; also called compound 54
Ratio hCT/hAmylin funct. [1]: 9.6 | hCTR funct. EC50 [2]: 987 pM

B4: N^ε1-[2-[2-[2-[[(4S)-4-carboxy-4-(19-carboxynonadecanoylamino)butanoyl]amino]ethoxy]ethoxy]acetyl]-[Arg17,Pro21,Pro27,Pro34,His35]-h-amylin (peptide)
peptide: K([AEEA-γGlu-C20 diacid])CNTATCATQRLANFLRHSSPNFGAIPSSTNVGPHTY-NH2
modifications: disulfide 2-7; N-terminus assumed
SMILES: CC[C@H](C)[C@H](NC(=O)[C@H](C)NC(=O)CNC(=O)[C@H](Cc1ccccc1)NC(=O)[C@H](CC(N)=O)NC(=O)[C@@H]1CCCN1C(=O)[C@H](CO)NC(=O)[C@H](CO)NC(=O)[C@H](Cc1c[nH]cn1)NC(=O)[C@H](CCCNC(=N)N)NC(=O)[C@H](CC(C)C)NC(=O)[C@H](Cc1ccccc1)NC(=O)[C@H](CC(N)=O)NC(=O)[C@H](C)NC(=O)[C@H](CC(C)C)NC(=O)[C@H](CCCNC(=N)N)NC(=O)[C@H](CCC(N)=O)NC(=O)[C@@H](NC(=O)[C@H](C)NC(=O)[C@@H]1CSSC[C@H](NC(=O)[C@@H](N)CCCCNC(=O)COCCOCCNC(=O)CC[C@H](NC(=O)CCCCCCCCCCCCCCCCCCC(=O)O)C(=O)O)C(=O)N[C@@H](CC(N)=O)C(=O)N[C@@H]([C@@H](C)O)C(=O)N[C@@H](C)C(=O)N[C@@H]([C@@H](C)O)C(=O)N1)[C@@H](C)O)C(=O)N1CCC[C@H]1C(=O)N[C@@H](CO)C(=O)N[C@@H](CO)C(=O)N[C@H](C(=O)N[C@@H](CC(N)=O)C(=O)N[C@H](C(=O)NCC(=O)N1CCC[C@H]1C(=O)N[C@@H](Cc1c[nH]cn1)C(=O)N[C@H](C(=O)N[C@@H](Cc1ccc(O)cc1)C(N)=O)[C@@H](C)O)C(C)C)[C@@H](C)O
notes: h-amylin derivative; disulfide bridge and C-terminal amide as told for human amylin; also called compound 58
hAmylin-R funct. EC50 [1]: 47 pM | hCTR funct. EC50 [2]: 1030 pM

B5: N^ε1-[2-[2-[2-[[(4S)-4-carboxy-4-(19-carboxynonadecanoylamino)butanoyl]amino]ethoxy]ethoxy]acetyl]-[Arg17,Pro21,Pro27,Pro29,Pro34]-h-amylin (peptide)
peptide: K([AEEA-γGlu-C20 diacid])CNTATCATQRLANFLRHSSPNFGAIPSPTNVGPNTY-NH2
modifications: disulfide 2-7; N-terminus assumed
SMILES: CC[C@H](C)[C@H](NC(=O)[C@H](C)NC(=O)CNC(=O)[C@H](Cc1ccccc1)NC(=O)[C@H](CC(N)=O)NC(=O)[C@@H]1CCCN1C(=O)[C@H](CO)NC(=O)[C@H](CO)NC(=O)[C@H](Cc1c[nH]cn1)NC(=O)[C@H](CCCNC(=N)N)NC(=O)[C@H](CC(C)C)NC(=O)[C@H](Cc1ccccc1)NC(=O)[C@H](CC(N)=O)NC(=O)[C@H](C)NC(=O)[C@H](CC(C)C)NC(=O)[C@H](CCCNC(=N)N)NC(=O)[C@H](CCC(N)=O)NC(=O)[C@@H](NC(=O)[C@H](C)NC(=O)[C@@H]1CSSC[C@H](NC(=O)[C@@H](N)CCCCNC(=O)COCCOCCNC(=O)CC[C@H](NC(=O)CCCCCCCCCCCCCCCCCCC(=O)O)C(=O)O)C(=O)N[C@@H](CC(N)=O)C(=O)N[C@@H]([C@@H](C)O)C(=O)N[C@@H](C)C(=O)N[C@@H]([C@@H](C)O)C(=O)N1)[C@@H](C)O)C(=O)N1CCC[C@H]1C(=O)N[C@@H](CO)C(=O)N1CCC[C@H]1C(=O)N[C@H](C(=O)N[C@@H](CC(N)=O)C(=O)N[C@H](C(=O)NCC(=O)N1CCC[C@H]1C(=O)N[C@@H](CC(N)=O)C(=O)N[C@H](C(=O)N[C@@H](Cc1ccc(O)cc1)C(N)=O)[C@@H](C)O)C(C)C)[C@@H](C)O
notes: h-amylin derivative; disulfide bridge and C-terminal amide as told for human amylin; also called compound 56
Ratio hCT/hAmylin funct. [1]: 5 | hAmylin-R funct. EC50 [1]: 102 pM | hCTR funct. EC50 [2]: 506 pM

B6: N^ε1-[2-[2-[2-[[(4S)-4-carboxy-4-(19-carboxynonadecanoylamino)butanoyl]amino]ethoxy]ethoxy]acetyl]-[Arg17,Pro21,Pro27,Pro28,Pro34]-h-amylin (peptide)
peptide: K([AEEA-γGlu-C20 diacid])CNTATCATQRLANFLRHSSPNFGAIPPSTNVGPNTY-NH2
modifications: disulfide 2-7; N-terminus assumed
SMILES: CC[C@H](C)[C@H](NC(=O)[C@H](C)NC(=O)CNC(=O)[C@H](Cc1ccccc1)NC(=O)[C@H](CC(N)=O)NC(=O)[C@@H]1CCCN1C(=O)[C@H](CO)NC(=O)[C@H](CO)NC(=O)[C@H](Cc1c[nH]cn1)NC(=O)[C@H](CCCNC(=N)N)NC(=O)[C@H](CC(C)C)NC(=O)[C@H](Cc1ccccc1)NC(=O)[C@H](CC(N)=O)NC(=O)[C@H](C)NC(=O)[C@H](CC(C)C)NC(=O)[C@H](CCCNC(=N)N)NC(=O)[C@H](CCC(N)=O)NC(=O)[C@@H](NC(=O)[C@H](C)NC(=O)[C@@H]1CSSC[C@H](NC(=O)[C@@H](N)CCCCNC(=O)COCCOCCNC(=O)CC[C@H](NC(=O)CCCCCCCCCCCCCCCCCCC(=O)O)C(=O)O)C(=O)N[C@@H](CC(N)=O)C(=O)N[C@@H]([C@@H](C)O)C(=O)N[C@@H](C)C(=O)N[C@@H]([C@@H](C)O)C(=O)N1)[C@@H](C)O)C(=O)N1CCC[C@H]1C(=O)N1CCC[C@H]1C(=O)N[C@@H](CO)C(=O)N[C@H](C(=O)N[C@@H](CC(N)=O)C(=O)N[C@H](C(=O)NCC(=O)N1CCC[C@H]1C(=O)N[C@@H](CC(N)=O)C(=O)N[C@H](C(=O)N[C@@H](Cc1ccc(O)cc1)C(N)=O)[C@@H](C)O)C(C)C)[C@@H](C)O
notes: h-amylin derivative; disulfide bridge and C-terminal amide as told for human amylin; also called compound 55
hAmylin-R funct. EC50 [1]: 68 pM | hCTR funct. EC50 [2]: 731 pM

B7: N^ε1-[2-[2-[2-[[(4S)-4-carboxy-4-(19-carboxynonadecanoylamino)butanoyl]amino]ethoxy]ethoxy]acetyl]-[Arg17,Pro21,Pro27,Pro28,Pro31]-h-amylin (peptide)
peptide: K([AEEA-γGlu-C20 diacid])CNTATCATQRLANFLRHSSPNFGAIPPSTPVGSNTY-NH2
modifications: disulfide 2-7
notes: h-amylin derivative; disulfide bridge and C-terminal amide as told for human amylin; also called compound 53
Ratio hCT/hAmylin funct. [1]: 9.8 | hCTR funct. EC50 [2]: 625 pM

Source: US20140087995A1 (published 2014)
